The target in this test is IL-17RA and IL-17RC co-expressed on 293F-IL-17RA-IL-17Rc-ACT1-NFκB-Luc reporter cells (Homo sapiens (Human)) (UniProt Q96F46). As to the kind of experiment: FACS, IL-17A recombinant protein on 293F-IL-17RA-IL-17Rc-ACT1-NFκB-Luc cells.
UniProt Q96F46, sequence (Q96F46 33-866 limits assumed, chain 1 of 2): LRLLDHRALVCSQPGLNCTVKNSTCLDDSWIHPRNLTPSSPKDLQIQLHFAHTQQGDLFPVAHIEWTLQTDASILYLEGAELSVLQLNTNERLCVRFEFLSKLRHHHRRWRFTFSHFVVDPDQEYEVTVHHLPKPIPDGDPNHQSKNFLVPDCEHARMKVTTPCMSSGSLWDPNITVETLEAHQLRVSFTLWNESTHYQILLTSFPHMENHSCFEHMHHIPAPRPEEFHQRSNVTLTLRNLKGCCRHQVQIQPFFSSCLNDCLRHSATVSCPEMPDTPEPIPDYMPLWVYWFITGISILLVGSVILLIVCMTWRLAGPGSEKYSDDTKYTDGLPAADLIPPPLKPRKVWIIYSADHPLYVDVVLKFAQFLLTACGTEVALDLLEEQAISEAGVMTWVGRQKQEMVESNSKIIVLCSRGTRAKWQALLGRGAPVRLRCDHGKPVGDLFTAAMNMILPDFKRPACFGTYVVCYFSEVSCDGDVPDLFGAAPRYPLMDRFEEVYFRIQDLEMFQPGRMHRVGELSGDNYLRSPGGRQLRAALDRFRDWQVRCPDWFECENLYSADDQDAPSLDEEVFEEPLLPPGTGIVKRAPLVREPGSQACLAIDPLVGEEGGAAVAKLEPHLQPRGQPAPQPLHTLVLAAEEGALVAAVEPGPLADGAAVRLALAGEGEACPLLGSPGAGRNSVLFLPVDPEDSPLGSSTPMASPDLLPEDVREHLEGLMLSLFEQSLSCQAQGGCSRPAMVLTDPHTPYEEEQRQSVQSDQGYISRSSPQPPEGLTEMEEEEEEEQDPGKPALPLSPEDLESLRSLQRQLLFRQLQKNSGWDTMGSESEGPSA
UniProt Q96F46, sequence (chain, as listed by the source limits assumed, chain 2 of 2): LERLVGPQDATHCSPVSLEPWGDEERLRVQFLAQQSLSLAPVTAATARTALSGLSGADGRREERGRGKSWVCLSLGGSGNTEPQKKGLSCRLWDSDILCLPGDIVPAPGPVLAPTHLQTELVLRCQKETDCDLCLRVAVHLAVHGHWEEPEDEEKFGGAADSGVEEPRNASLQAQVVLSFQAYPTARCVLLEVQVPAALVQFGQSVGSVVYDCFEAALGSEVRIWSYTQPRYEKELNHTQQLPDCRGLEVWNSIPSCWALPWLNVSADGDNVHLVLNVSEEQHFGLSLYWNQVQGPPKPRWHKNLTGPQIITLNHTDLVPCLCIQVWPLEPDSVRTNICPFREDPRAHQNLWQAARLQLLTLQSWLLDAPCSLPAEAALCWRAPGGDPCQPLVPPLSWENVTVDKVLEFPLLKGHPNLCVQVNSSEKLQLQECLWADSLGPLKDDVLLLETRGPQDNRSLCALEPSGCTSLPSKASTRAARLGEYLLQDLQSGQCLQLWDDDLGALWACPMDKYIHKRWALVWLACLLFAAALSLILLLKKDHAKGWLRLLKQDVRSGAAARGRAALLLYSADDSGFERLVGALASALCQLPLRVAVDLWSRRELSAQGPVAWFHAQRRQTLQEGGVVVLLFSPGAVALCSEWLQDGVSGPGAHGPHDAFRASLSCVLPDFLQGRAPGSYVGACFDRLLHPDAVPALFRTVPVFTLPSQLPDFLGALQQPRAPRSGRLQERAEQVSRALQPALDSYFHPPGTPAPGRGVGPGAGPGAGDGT

Take “Human IL-17A重组蛋白 (C-terminal 6xHis) (from UniProt Q16552 24-155) (ligand)”: the 阳性率 was > 90 %.
